Key:
[1] = molecular target: light-dependent protochlorophyllide oxidoreductase of Thermosynechococcus elongatus BP-1 (TeLPOR) (Thermosynechococcus elongatus BP-1) (UniProt Q8DLC1); experiment: AUC; sedimentation velocity with multiwavelength absorbance optics (MWA-AUC), 20 °C, 50 krpm, c(s) model in SEDFIT; apoprotein (no NADPH, no Pchlide), 0.615 mg ml^-1 (1.23 mg ml^-1 diluted to half with reaction buffer)
[2] = molecular target: light-dependent protochlorophyllide oxidoreductase of Thermosynechococcus elongatus BP-1 (TeLPOR) (Thermosynechococcus elongatus BP-1) (UniProt Q8DLC1); experiment: SAXS; ESRF BM29, 10 °C, 20 mM Tris/HCl pH 7.5, 500 mM NaCl, 20% (v/v) glycerol; apoprotein (no NADPH, no Pchlide), concentration series, apo 2 dataset merged from low and high concentration; dimer content assuming only monomers and dimers

light-dependent protochlorophyllide oxidoreductase of Thermosynechococcus elongatus BP-1 (TeLPOR) (from UniProt Q8DLC1 1-322) (enzyme)
percent dimers (apoprotein, without NADPH and Pchlide) [1]: 3.6%
dimer content (%) from I(0) (apoprotein, without NADPH and Pchlide) [2]: 0%
dimer content (%) from Vp (apoprotein, without NADPH and Pchlide) [2]: 1.7%

Reference: paper PMC6761149
